The chains are these.
B1: N355D (protein)
chain: MQLRNPELHLGCALALRFLALVSWDIPGARALDNGLARTPTMGWLHWERFMCNLDCQEEPDSCISEKLFMEMAELMVSEGWKDAGYEYLCIDDCWMAPQRDSEGRLQADPQRFPHGIRQLANYVHSKGLKLGIYADVGNKTCAGFPGSFGYYDIDAQTFADWGVDLLKFDGCYCDSLENLADGYKHMSLALNRTGRSIVYSCEWPLYMWPFQKPNYTEIRQYCNHWRNFADIDDSWKSIKSILDWTSFNQERIVDVAGPGGWNDPDMLVIGNFGLSWNQQVTQMALWAIMAAPLFMSNDLRHISPQAKALLQDKDVIAINQDPLGKQGYQLRQGDNFEVWERPLSGLAWAVAMIDRQEIGGPRSYTIAVASLGKGVACNPACFITQLLPVKRKLGFYEWTSRLRSHINPTGTVLLQLENTMQMSLKDLL
B2: N355H (protein)
chain: B1 chain with D355H
B3: N355Y (protein)
chain: B1 chain with D355Y
B4: N355S (protein)
chain: B1 chain with D355S
B5: Q357E (protein)
chain: B1 chain with D355N, Q357E
B6: R363G (protein)
chain: B1 chain with D355N, R363G
B7: I359V (protein)
chain: B1 chain with D355N, I359V
B8: I359F (protein)
chain: B1 chain with D355N, I359F
B9: P362H (protein)
chain: B1 chain with D355N, P362H
B10: R363S (protein)
chain: B1 chain with D355N, R363S
B11: I359N (protein)
chain: B1 chain with D355N, I359N
B12: P362S (protein)
chain: B1 chain with D355N, P362S
B13: R356L (protein)
chain: B1 chain with D355N, R356L
B14: I359L (protein)
chain: B1 chain with D355N, I359L
B15: R363L (protein)
chain: B1 chain with D355N, R363L
B16: I359S (protein)
chain: B1 chain with D355N, I359S
B17: P362R (protein)
chain: B1 chain with D355N, P362R
B18: P362A (protein)
chain: B1 chain with D355N, P362A

Residue numbers refer to the chain shown, from its start. Names and notes keep the numbering of the source.

The first assay concerns mutant form of α-Gal A expressed in HEK-293 cells. In words: HEK assay (GLP HEK / Migalastat Amenability Assay): α-Gal A activity in lysates of transiently transfected HEK-293 cells incubated with or without 10 μM migalastat. The settings on record: 10 μM migalastat versus baseline. It is filed as cell-based, human. The essentials:
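HEK-293 cells transiently transfected with mutant α-Gal A and incubated with or without 10 μM migalastat; lysate activity given as nmol free 4-MU released per mg protein per hour. Values are mean±SEM.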
Turning to B1, the “Absolute increase (% WT)” value came out at 16.7 % WT and the Relative increase came out at 3.3.
B2: the “Absolute increase (% WT)” value worked out at 9.9 % WT and the Relative increase worked out at 3.5.
Regarding B3, the “Absolute increase (% WT)” value is listed as 26.6 % WT and the Relative increase is 2.8.
The corresponding values for B4 are 30.8 % WT and 2.2.
For B5, the “Absolute increase (% WT)” value was 41.5 % WT and the Relative increase worked out at 1.9.
As to B6, the “Absolute increase (% WT)” value is 72.6 % WT and the Relative increase is 2.7.
Taken in the same sequence, the figures for B7 were 31.6 % WT and 1.6.
The corresponding values for B8 are 14.1 % WT and 2.1.
Taken in the same sequence, the figures for B9 were 33.4 % WT and 3.9.
With B10, the “Absolute increase (% WT)” value worked out at 86.6 % WT and the Relative increase amounted to 2.7.
The corresponding values for B11 are 12.5 % WT and 1.6.
The corresponding values for B12 are 53.8 % WT and 1.8.
As for B13, the “Absolute increase (% WT)” value worked out at 43.7 % WT and the Relative increase was found to be 2.8.
Taken in the same sequence, the figures for B14 were 25.6 % WT and 1.7.
Taken in the same sequence, the figures for B15 were 62.2 % WT and 3.5.
Take B16: the “Absolute increase (% WT)” value is given as 29.6 % WT and the Relative increase worked out at 1.3.
On to B17, for which the “Absolute increase (% WT)” value is on record as 23.9 % WT and the Relative increase turned out to be 1.8.
Taken in the same sequence, the figures for B18 were 40.1 % WT and 1.4.

The same assay, now with this note: absence of migalastat; percentage of baseline wild-type α-Gal A activity; mean ± SEM.
With B1, the “Baseline α-Gal A activity (% WT)” value is reported as 7.3 ± 0.4 % WT.
Consider B2, for which the “Baseline α-Gal A activity (% WT)” value amounted to 4 ± 0.2 % WT.
Still for that read-out and setting: to B3 belongs 15.2 ± 1 % WT; to B4, 25.9 ± 1.6 % WT; to B5, 42.8 ± 2.1 % WT.
The same measure, in the same setting: the figure for B6 is 41.8 ± 5.1 % WT.
With B7, the “Baseline α-Gal A activity (% WT)” value was determined as 51.5 ± 3.4 % WT.
Still for that read-out and setting: to B8 belongs 13 ± 1 % WT; to B9, 11.2 ± 1 % WT.
For B10, the “Baseline α-Gal A activity (% WT)” value is listed as 50.1 ± 5.9 % WT.
On the same count and under the same terms, the figure for B11 is 20.8 ± 1.2 % WT; for B12 it is 71.2 ± 7.7 % WT.
Same read-out and setting: to B13 belongs 24.4 ± 1 % WT; to B14, 39.1 ± 1.8 % WT.
Same read-out and setting: the figure for B15 is 23.2 ± 1.9 % WT; for B16 it is 101.6 ± 6.3 % WT.
As to B17, the “Baseline α-Gal A activity (% WT)” value amounted to 25 ± 3.1 % WT.
Regarding B18, the “Baseline α-Gal A activity (% WT)” value is 100.8 ± 9.5 % WT.

The assay is the same for the next values; noted with them: lysates of HEK-293 cells transiently transfected with the mutant form, incubated 5 days in absence of migalastat; mean ± SEM.
B1: the “Baseline α-Gal A activity” value was determined as 3366 ± 241 nmol/mg/h.
Still for that read-out and setting: to B2 belongs 1822 ± 81 nmol/mg/h.
As for B3, the “Baseline α-Gal A activity” value stood at 5994 ± 461 nmol/mg/h.
Regarding B4, the “Baseline α-Gal A activity” value is 11397 ± 817 nmol/mg/h.
Same read-out and setting: to B5 belongs 15264 ± 877 nmol/mg/h; to B6, 13990 ± 1613 nmol/mg/h; to B7, 20990 ± 1174 nmol/mg/h.
On the same count and under the same terms, the figure for B8 is 6138 ± 568 nmol/mg/h; for B9 it is 3713 ± 377 nmol/mg/h; for B10 it is 16400 ± 1695 nmol/mg/h.
On the same count and under the same terms, to B11 belongs 10862 ± 655 nmol/mg/h; to B12, 25234 ± 2794 nmol/mg/h.
In the case of B13, the “Baseline α-Gal A activity” value worked out at 10680 ± 518 nmol/mg/h.
On the same count and under the same terms, the figure for B14 is 16254 ± 909 nmol/mg/h; for B15 it is 8123 ± 869 nmol/mg/h.
The same measure, in the same setting: to B16 belongs 37737 ± 2594 nmol/mg/h; to B17, 8745 ± 1176 nmol/mg/h; to B18, 35322 ± 3087 nmol/mg/h.

Still in this assay, the particulars now being: lysates of HEK-293 cells transiently transfected with the mutant form, incubated 5 days with 10 μM migalastat; mean ± SEM.
As for B1, the “10 μM migalastat α-Gal A activity” value is 11004 ± 832 nmol/mg/h.
For the molecule B2, the “10 μM migalastat α-Gal A activity” value came to 6399 ± 338 nmol/mg/h.
Same read-out and setting: the figure for B3 is 16930 ± 1745 nmol/mg/h.
For B4, the “10 μM migalastat α-Gal A activity” value was 24820 ± 1396 nmol/mg/h.
As for B5, the “10 μM migalastat α-Gal A activity” value is 28922 ± 1194 nmol/mg/h.
On the same count and under the same terms, the figure for B6 is 37837 ± 2998 nmol/mg/h.
As to B7, the “10 μM migalastat α-Gal A activity” value was 34265 ± 1528 nmol/mg/h.
B8: the “10 μM migalastat α-Gal A activity” value was found to be 13144 ± 1091 nmol/mg/h.
Same read-out and setting: to B9 belongs 14620 ± 531 nmol/mg/h; to B10, 44621 ± 3266 nmol/mg/h; to B11, 17332 ± 879 nmol/mg/h.
The same measure, in the same setting: the figure for B12 is 45209 ± 4138 nmol/mg/h; for B13 it is 29548 ± 2017 nmol/mg/h; for B14 it is 26791 ± 1713 nmol/mg/h.
On the same count and under the same terms, to B15 belongs 27997 ± 2485 nmol/mg/h.
For B16, the “10 μM migalastat α-Gal A activity” value is 48055 ± 2727 nmol/mg/h.
For B17, the “10 μM migalastat α-Gal A activity” value stood at 15971 ± 1019 nmol/mg/h.
On the same count and under the same terms, the figure for B18 is 49809 ± 2721 nmol/mg/h.

The same assay, now with this note: with 10 μM migalastat, 5 days; percentage of baseline wild-type α-Gal A activity; mean ± SEM.
For the molecule B1, the “10 μM migalastat α-Gal A activity (% WT)” value was 24 ± 1.6 % WT.
With B2, the “10 μM migalastat α-Gal A activity (% WT)” value stood at 13.9 ± 0.6 % WT.
On the same count and under the same terms, to B3 belongs 41.8 ± 3.3 % WT; to B4, 56.7 ± 2.8 % WT; to B5, 84.3 ± 6.3 % WT.
Turning to B6, the “10 μM migalastat α-Gal A activity (% WT)” value stood at 114.4 ± 10.7 % WT.
Regarding B7, the “10 μM migalastat α-Gal A activity (% WT)” value was 83.1 ± 3.3 % WT.
Still for that read-out and setting: the figure for B8 is 27 ± 1.6 % WT; for B9 it is 44.6 ± 1.9 % WT.
Consider B10, for which the “10 μM migalastat α-Gal A activity (% WT)” value was determined as 136.7 ± 12.4 % WT.
Still for that read-out and setting: to B11 belongs 33.3 ± 1.8 % WT; to B12, 125 ± 9 % WT; to B13, 68.1 ± 4.6 % WT.
Same read-out and setting: to B14 belongs 64.7 ± 3.9 % WT; to B15, 85.4 ± 9.5 % WT; to B16, 131.2 ± 8.4 % WT.
The same measure, in the same setting: to B17 belongs 48.9 ± 4.1 % WT; to B18, 140.9 ± 8.5 % WT.
